Measurements reported in patent publication US20250375541A1, “RADIOPHARMACEUTICAL COMPOSITION AND METHODS” (Ariceum Therapeutics GmbH, priority 2024, published 2025).

Assay: Stability of the radiopharmaceutical composition: radiochemical purity by radio-TLC over time from EoP
Type: physicochemical
Settings: Tris pH 8.0, sodium ascorbate formulation
Method: Upon reaction completion, the mixture was directly cooled down with formulation solution (123.7 mg/mL sodium ascorbate buffer) to yield a 20 mL [^225Ac]Ac-DOTA-satoreotide stock solution. Reaction completion is referred to as the “end-of-production” (EoP) time, or t=0 h as used in the following results.
This was determined by radio TLC as set out below.
Radio-TLC was performed at T=0 h and at various time points subsequent to the radiolabeling procedure. To run the procedure, 5 μL of reaction solution was spotted on a TLC plate (RP-C18 silica glass plates) at about 1.5 cm from bottom edge. The TLC plate was developed using a mobile phase mixture of ammonium acetate 25% and methanol (40:60 Vol.-%) with an elution length of about 5-6 cm. The TLC plate was dried and measured on a phosphor imager (Perkin Elmer Cyclone Plus Storage Phosphor system) once secular equilibrium of ^225Ac and ^221Fr/^213Bi was reached (>6 hours after development). Free Ac(III) stays at the origin while ^225Ac-DOTA-Satoreotide travels with the eluent front.
In FIG. 1, “T=Xh, read Yh” means that a sample was taken and developed at T=Xh but analyzed Yh after development of the TLC plate, to account for equilibrium of the daughters.

Work on [^225Ac]Ac-DOTA-satoreotide yielded a radiochemical purity (after 168 hours (from EoP) at ambient temperatures) of 95.8% and a radiochemical purity (at 96 h from EoP) of 98.9%.
